Laboratory results as given in PMC10569793.

Legend:
[1] = molecular target: complex V (D. melanogaster), monomer (D. melanogaster (endogenous in fly mitochondria)); assay: native gel or EMSA; complexome profiling: wild-type fly mitochondria solubilised with 6 g digitonin/g protein (50 mM NaCl, 5 mM 6-aminohexanoic acid, 1 mM EDTA, 50 mM imidazole/HCl pH 7.0), 4-16% gradient BN-PAGE, lane cut into 60 slices, LC-MS/MS, label-free quantification
[2] = molecular target: complex V (D. melanogaster), monomer (D. melanogaster (endogenous in fly mitochondria)); assay: native gel or EMSA; BN-PAGE (NativePAGE 3-12% Bis-Tris) of wild-type fly mitochondria solubilised with 4 mg digitonin per mg protein; Coomassie stain and in-gel activity of CI and CIV
[3] = molecular target: mitochondrial respiratory chain complex IV (D. melanogaster) (D. melanogaster (endogenous in fly mitochondria)); assay: native gel or EMSA; BN-PAGE (NativePAGE 3-12% Bis-Tris) of mitochondria solubilised with 4 mg DDM per mg protein; Coomassie, in-gel activity, western blot of subunits; wild-type, Coa8 KO, Coa8 RNAi, strong Bcs1 RNAi and Ndufs4 RNAi flies or larvae with their controls
[4] = molecular target: mitochondrial respiratory chain complex IV (D. melanogaster) (D. melanogaster (endogenous in fly mitochondria)); assay: native gel or EMSA; BN-PAGE (NativePAGE 3-12% Bis-Tris) of wild-type fly mitochondria solubilised with 4 mg digitonin per mg protein; Coomassie stain and in-gel activity of CI and CIV

stoichiometry N [1] | stoichiometry N [2] | stoichiometry N [3] | stoichiometry N [4] | Substance
2 | 2 |  |  | complex V (D. melanogaster), monomer
 |  | 2 | 2 | mitochondrial respiratory chain complex IV (D. melanogaster)
